Data on twelve molecules can be found in paper PMC9804626 (Molecular Microbiology, 2022).

Common to all, as to assay: co-IP
Test [1] has as its target MpgA‐F (Streptococcus pneumoniae D39).
Test [2] has as its target PBP1a‐F (Streptococcus pneumoniae D39).
Test [3] deals with MreC‐L‐F3 (Streptococcus pneumoniae D39) (UniProt Q8DMY2).
In test [4] the target is T1, RodZ‐FLAG (Streptococcus pneumoniae D39).
T1 sequence (Q8DMX7 1-276, looked up): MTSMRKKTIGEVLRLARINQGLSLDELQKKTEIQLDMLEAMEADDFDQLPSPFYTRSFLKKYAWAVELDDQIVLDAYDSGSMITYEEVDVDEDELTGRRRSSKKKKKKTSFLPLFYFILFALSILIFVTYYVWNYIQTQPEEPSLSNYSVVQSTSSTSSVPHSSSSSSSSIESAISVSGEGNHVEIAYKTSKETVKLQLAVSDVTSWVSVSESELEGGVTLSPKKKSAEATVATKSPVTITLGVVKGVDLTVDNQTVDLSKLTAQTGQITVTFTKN

For test [5], the target named is T2, RodZ‐L‐FLAG^3 (Streptococcus pneumoniae D39).
T2 sequence (Q8DMX7 1-276, looked up): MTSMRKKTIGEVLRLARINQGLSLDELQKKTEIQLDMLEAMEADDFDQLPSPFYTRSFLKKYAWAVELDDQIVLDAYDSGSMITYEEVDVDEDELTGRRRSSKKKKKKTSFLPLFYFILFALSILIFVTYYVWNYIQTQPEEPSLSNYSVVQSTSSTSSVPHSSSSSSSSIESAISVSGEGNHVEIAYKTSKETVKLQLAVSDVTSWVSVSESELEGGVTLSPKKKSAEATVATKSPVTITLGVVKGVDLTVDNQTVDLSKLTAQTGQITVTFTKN

Test [6] concerns the target KhpB‐L‐F3 (Streptococcus pneumoniae D39) (UniProt Q8CY87).
Another test addresses T3, MreC‐L‐F3 (Streptococcus pneumoniae D39, UniProt Q8DMY2 1-272).
T3 sequence (looked up): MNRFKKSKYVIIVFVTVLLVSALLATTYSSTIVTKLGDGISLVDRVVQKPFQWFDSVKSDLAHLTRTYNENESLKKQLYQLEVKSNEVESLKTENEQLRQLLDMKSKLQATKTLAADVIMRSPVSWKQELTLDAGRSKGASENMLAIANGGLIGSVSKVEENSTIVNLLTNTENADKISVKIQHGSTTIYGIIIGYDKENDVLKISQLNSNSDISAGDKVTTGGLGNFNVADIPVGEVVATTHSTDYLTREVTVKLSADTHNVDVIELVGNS

Turning to GpsB (natural protein), the ratio of prey protein band/background is 38 in test [1]; 16 in test [2]; 26 in test [3]; 24 in test [4]; 51 in test [5].

As to bPBP2b (natural protein), the ratio of prey protein band/background in test [1] came out at 13; in test [2], 13; in test [3] it was 47; in test [4] it was 26; in test [5], 63.

As for RodZ‐HA^3 (natural protein), the ratio of prey protein band/background is 8.6 in test [2] and 1.4 in test [6].

With aPBP1a (natural protein), the ratio of prey protein band/background in test [1] was determined as 22; in test [3] it was 41; in test [4] it was 11; in test [5] it was 61.

Consider “FtsA (from UniProt A0A0H2ZPT5 1-457) (natural protein)”, for which, in test [1], the ratio of prey protein band/background stood at 4.5.

In the case of StkP (natural protein), the ratio of prey protein band/background was 34 in test [1], 28 in test [2], 14 in test [3] and 23 in test [5].

With MpgA‐HA (natural protein), the ratio of prey protein band/background in test [5] was determined as 8.6.

For bPBP2x (natural protein), the ratio of prey protein band/background in test [1] amounted to 12; in test [2] it was 15; in test [3], 10; in test [4] it was 4.8; in test [5], 8.7.

Take “FtsW‐L‐GFP (from UniProt A0ACD7PRK7 1-409) (natural protein)”: the ratio of prey protein band/background in test [5] turned out to be 4.5.

B1: MreC (natural protein)
chain: MNRFKKSKYVIIVFVTVLLVSALLATTYSSTIVTKLGDGISLVDRVVQKPFQWFDSVKSDLAHLTRTYNENESLKKQLYQLEVKSNEVESLKTENEQLRQLLDMKSKLQATKTLAADVIMRSPVSWKQELTLDAGRSKGASENMLAIANGGLIGSVSKVEENSTIVNLLTNTENADKISVKIQHGSTTIYGIIIGYDKENDVLKISQLNSNSDISAGDKVTTGGLGNFNVADIPVGEVVATTHSTDYLTREVTVKLSADTHNVDVIELVGNS
Turning to B1, the ratio of prey protein band/background in test [1] stood at 22; in test [2], 19; in test [4], 24; in test [5] it was 100.

B2: aPBP2a (natural protein, UniProt A0A0H2ZMF9 1-731, looked up)
chain: MKLDKLFEKFLSLFKKETSELEDSDSTILRRSRSDRKKLAQVGPIRKFWRRYHLTKIILILGLSAGLLVGIYLFAVAKSTNVNDLQNALKTRTLIFDREEKEAGALSGQKGTYVELTDISKNLQNAVIATEDRSFYKNDGINYGRFFLAIVTAGRSGGGSTITQQLAKNAYLSQDQTVERKAKEFFLALELSKKYSKEQILTMYLNNAYFGNGVWGVEDASKKYFGVSASEVSLDQAATLAGMLKGPELYNPLNSVEDSTNRRDTVLQNMVAAGYIDKNQETEAAEVDMTSQLHDKYEGKISDYRYPSYFDAVVNEAVSKYNLTEEEIVNNGYRIYTELDQNYQANMQIVYENTSLFPRAEDGTFAQSGSVALEPKTGGVRGVVGQVADNDKTGFRNFNYATQSKRSPGSTIKPLVVYTPAVEAGWALNKQLDNHTMQYDSYKVDNYAGIKTSREVPMYQSLAESLNLPAVATVNDLGVDKAFEAGEKFGLNMEKVDRVLGVALGSGVETNPLQMAQAYAAFANEGLMPEAHFISRIENASGQVIASHKNSQKRVIDKSVADKMTSMMLGTFTNGTGISSSPADYVMAGKTGTTEAVFNPEYTSDQWVIGYTPDVVISHWLGFPTTDENHYLAGSTSNGAAHVFRNIANTILPYTPGSTFTVENAYKQNGIAPANTKRQVQTNDNSQTDDNLSDIRGRAQSLVDEASRAISDAKIKEKAQTIWDSIVNLFR
On to B2, for which the “ratio of prey protein band/background” value in the test with MreC‐L‐F3 is 20.

B3: DivIVA (natural protein, UniProt Q8CWP9 1-262, looked up)
chain: MPITSLEIKDKTFGTRFRGFDPEEVDEFLDIVVRDYEDLVRANHDKNLRIKSLEERLSYFDEIKDSLSQSVLIAQDTAERVKQAAHERSNNIIHQAEQDAQRLLEEAKYKANEILRQATDNAKKVAVETEELKNKSRVFHQRLKSTIESQLAIVESSDWEDILRPTATYLQTSDEAFKEVVSEVLGEPIPAPIEEEPIDMTRQFSQAEMEELQARIEVADKELSEFEAQIKQEVETPTPVVSPQVEEEPLLIQLAQCMKNQK
For the molecule B3, the ratio of prey protein band/background in test [1] was 53; in test [2] it was 6.8; in test [4], 7.9; in test [5], 18; with MreC‐L‐F3, 4.3.
